The target of assay [1] is T1, Mouse Epiregulin (mouse, UniProt Q61521 56-101). The assay is described as follows: cell-based or functional assay.
Assay [2] concerns the target T2, Met-human Epiregulin (human, UniProt O14944 63-108). The assay is described as follows: cell-based or functional assay.
The target in assay [3] is T3, Rat TGF-alpha (rat, UniProt P01134 39-88). The assay is described as follows: cell-based or functional assay.
For assay [4], the target named is Human Epigen (human, UniProt Q6UW88 24-104, limits assumed). The assay is described as follows: cell-based or functional assay.
Assay [5] has as its target Cynomolgus Epiregulin (cynomolgus, UniProt O14944 63-108 (human entry), limits assumed). The assay is described as follows: SPR (Biacore), antibody captured by anti-human Fc, ligand in solution, 25 C. Here is the method: (§1) Biacore T2000 instrument (BIAcore® AB, Upsala, Sweden), reagents and Biacore T2000 Evaluation Software Ver 4.1 are used for the Surface Plasmon Resonance analysis. A CM5 chip is prepared using manufacturer's EDC/NHS amine coupling method. The surfaces of all four flow cells are activated by injecting a 1:1 mixture of EDC/NHS for 7 minutes at 10 μL/min. Goat anti-human Fc γ specific antibody is diluted to 50 μg/ml in 10 mM acetate, pH 4.0 buffer and immobilized for approximately 10000 RU onto all four flow cells by 7 minute injection at a flow rate of 10 μL/min. Un-reacted sites are blocked with a 7 minute injection of ethanolamine at 10 μL/min. Injections of 3×20 seconds of glycine pH 1.5 at 30 μL/min are used to remove non-covalently associated protein. The running buffer is HBS-EP [10 mM HEPES, 150 mM Sodium Chloride, 3 mM EDTA, 0.005% Polysorbate 20].
(§2) Duplicate injections of each ligand concentration are injected at 30 μL/min for 300 seconds followed by a dissociation phase. […] Regeneration is performed by injecting 10 mM glycine pH 1.5 for 3×20 seconds at 30 μL/min over all flowcell.
(§3) Reference-subtracted data are collected as Fc2−Fc1. The measurements are obtained at 25° C. The on-rate (kₒₙ) and off-rate (koff) for each ligand are evaluated using a “1:1 (Langmuir) Binding” binding model. The affinity (KD) is calculated from the binding kinetics according to the relationship: KD=koff/kₒₙ.
(In general: SPR reads the build-up and loss of mass on a sensor chip optically.)

Assay [6] has as its target T1, Mouse Epiregulin. The assay is described as above. Here is the method: as §1, §2, §3
The target in assay [7] is T2, Met-human Epiregulin. The description is as above. Here is the method: as §1, §2, §3
In assay [8] the target is T3, Rat TGF-alpha. Described as above. As to the method:
as §1, §2, §3

The target in assay [9] is Human TGF-alpha (human, UniProt P01135 40-89). The assay is described as follows: cell-based or functional assay.
Assay [10] has as its target T1, Mouse Epiregulin. The assay is described as follows: SPR (Biacore), antibody captured on the chip, ligand in solution, 25 C. As to the method: as §1
(§4) Duplicate injections of each ligand concentration are injected at 30 μL/min for 300 seconds followed by a dissociation phase. […] Regeneration is performed by injecting 10 mM glycine pH 1.5 for 30 seconds at 30 μL/min over all flowcell.
as §3

The target in assay [11] is Mouse TGF-alpha (mouse, UniProt P48030 39-88, limits assumed). Described as above. Here is the method: as §1, §4, §3

B1: Antibody I (antibody, human IgG4 S228P, kappa, F234A L235A, V domains shown)
VH: QVQLVQSGAEVKKPGSSVKVSCKASGYTFTDAYINWVRQAPGQGLEWMGWIWPGPVITYYNPKFKGRVTITADKSTSTAYMELSSLRSEDTAVYYCARREVLSPFAYWGQGTTVTVSS
VL: DIVMTQSPDSLAVSLGERATINCRSSQSIVHSTGNTYLEWYQQKPGQPPKLLIYKVSNRFSGVPDRFSGSGSGTDFTLTISSLQAEDVAVYYCFHGTHVPYTFGGGTKVEIKR
What is called Kd is the concentration at which binding is half-saturated. For the molecule B1, the “IC50 (nM), MFc7 proliferation assay (BrDU), ligand at 0.5 nM” value in assay [1] is 334 nM; in assay [2], 3.15 nM; in [3], 0.19 nM. The “IC50 (nM), MFc7 proliferation assay (BrDU), ligand at 100 nM” value in assay [4] is 807 nM. Besides, the dissociation constant (Kd) in [5] amounted to 1.05 nM; in assay [6], 342 nM; in assay [7], 1.29 nM; in assay [8] it was 0.0705 nM.

B2: Antibody III (antibody, mouse IgG1, kappa, V domains shown)
VH: QVQLQQSGPELVKPGASVKISCKASGYTFTDAYINWVKQRPGQGLEWIGWIWPGPVITYYNPKFKGKATLTVDKSSSTAYMLLSSLTSEDSAFYFCARREVLSPFAYWGQGTLVTVSA
VL: DVLMTQTPLSLPVSLGDQASISCRSSQSIVHSTGNTYLEWYLQKPGQSPKLLIYKVSNRFSGVPDRFSGSGSGTDFTLKISRVEAEDLGVYYCFHGTHVPYTFGGGTKLEIKR
notes: same six CDRs as Antibody I
Broadly, the koff is a measure of how fast the partners let go of each other. Low readings indicate a long-lived complex, high ones a short-lived complex. The term kon denotes the second-order rate constant of association. The low end stands for slow association, the high end for fast association. Turning to B2, the “IC50 (nM), MFc7 proliferation assay (BrDU), ligand at 0.5 nM” value in assay [1] came to 214 nM; in assay [3], 0.13 nM. The results for the “IC50 (nM), MFc7 proliferation assay (BrDU)” value in assay [9] and in assay [2] were 0.52 nM and 1.12 nM, respectively. Besides, the equilibrium dissociation constant (Kd) in assay [10] was determined as 215 nM; in assay [11], 0.038 nM. Besides, the dissociation rate constant (koff) in [10] came to 0.0141 s⁻¹; in [11], 2.02e-05 s⁻¹. Also, the kon came to 65500 M⁻¹ s⁻¹ in assay [10] and 541000 M⁻¹ s⁻¹ in assay [11].

The record behind these values is US20120258109A1 (Eli Lilly, published 2012).
